Experiments:
[1] = target: gp130 on F10.9 melanoma cells (UniProt Q00560); test: cell-based or functional assay
[2] = target: soluble form of gp130 (sgp130) (human) (UniProt P40189); test: plate binding assay on sgp130 captured by anti-human gp130 mAb; rhuIL-6 at 500 ng/ml with sIL-6RδVal at 2 to 500 ng/ml, detected with rabbit anti-IL-6R; Scatchard plot
Sequence of soluble form of gp130 (sgp130) (human) (P40189 23-619 limits assumed): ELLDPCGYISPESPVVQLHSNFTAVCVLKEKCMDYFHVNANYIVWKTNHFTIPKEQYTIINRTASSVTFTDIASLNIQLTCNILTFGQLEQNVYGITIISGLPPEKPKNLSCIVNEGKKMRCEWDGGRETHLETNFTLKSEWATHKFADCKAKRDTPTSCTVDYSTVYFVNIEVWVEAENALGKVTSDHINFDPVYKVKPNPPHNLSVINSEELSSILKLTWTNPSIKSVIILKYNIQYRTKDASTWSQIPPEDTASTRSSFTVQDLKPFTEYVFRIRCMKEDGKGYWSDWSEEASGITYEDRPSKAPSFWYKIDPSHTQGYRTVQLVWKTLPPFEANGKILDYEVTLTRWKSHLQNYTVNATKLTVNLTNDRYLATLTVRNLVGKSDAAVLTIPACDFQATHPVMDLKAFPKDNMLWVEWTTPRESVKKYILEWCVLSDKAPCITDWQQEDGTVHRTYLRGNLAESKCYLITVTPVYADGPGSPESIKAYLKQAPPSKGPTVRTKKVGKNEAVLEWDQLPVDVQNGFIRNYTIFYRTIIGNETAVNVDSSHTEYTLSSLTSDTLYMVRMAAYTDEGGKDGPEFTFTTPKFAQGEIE

Sequence of gp130 on F10.9 melanoma cells (Q00560 23-917 limits assumed): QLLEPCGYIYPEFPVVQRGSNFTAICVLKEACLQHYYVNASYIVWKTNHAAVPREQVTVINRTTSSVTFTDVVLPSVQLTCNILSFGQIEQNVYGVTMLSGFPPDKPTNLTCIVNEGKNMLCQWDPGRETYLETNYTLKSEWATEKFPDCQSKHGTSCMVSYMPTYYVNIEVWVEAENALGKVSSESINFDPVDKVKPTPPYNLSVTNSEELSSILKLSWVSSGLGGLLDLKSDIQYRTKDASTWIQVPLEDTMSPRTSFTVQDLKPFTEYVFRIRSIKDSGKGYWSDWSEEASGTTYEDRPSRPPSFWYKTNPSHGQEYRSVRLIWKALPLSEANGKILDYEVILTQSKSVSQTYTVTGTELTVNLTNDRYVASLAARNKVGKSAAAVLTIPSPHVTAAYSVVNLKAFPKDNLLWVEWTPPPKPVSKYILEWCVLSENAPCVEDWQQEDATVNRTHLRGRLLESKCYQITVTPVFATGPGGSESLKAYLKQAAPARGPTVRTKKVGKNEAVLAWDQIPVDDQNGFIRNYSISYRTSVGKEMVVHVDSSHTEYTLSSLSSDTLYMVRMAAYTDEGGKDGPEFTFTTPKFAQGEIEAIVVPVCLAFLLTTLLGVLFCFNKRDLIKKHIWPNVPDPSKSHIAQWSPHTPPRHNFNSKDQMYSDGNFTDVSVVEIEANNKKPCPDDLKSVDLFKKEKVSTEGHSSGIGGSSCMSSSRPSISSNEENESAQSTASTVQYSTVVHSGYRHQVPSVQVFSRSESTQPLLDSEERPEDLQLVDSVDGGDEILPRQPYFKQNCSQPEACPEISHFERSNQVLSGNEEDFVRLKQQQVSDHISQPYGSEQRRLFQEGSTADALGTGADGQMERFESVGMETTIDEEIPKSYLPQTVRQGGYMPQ

- maximal inhibition of F10.9 cells (growth inhibition, crystal violet, 4 days); IL-6 concentration in the mixture [1]: 7.5 nM
- maximal inhibition of F10.9 cells (growth inhibition, crystal violet, 4 days); sIL-6RδVal concentration in the mixture [1]: 2 nM
- Kd [2]: 260 pM
Substance: mixture of human IL-6 and sIL-6R (rhuIL-6 together with human sIL-6RδVal) (from UniProt P08887 20-356; P05231 29-212)

Reference: US20070172455A1
